For experiment [1], the target named is murine FGFR-2 (bek) expressed on CHO cells (murine) (UniProt P21803). In words: radioligand binding.
In experiment [2] the target is murine FGFR-1 (flg) expressed on CHO cells (murine) (UniProt P16092). As to the kind of experiment: radioligand binding.

Where “and” joins values, the source holds several entries; their conditions need not be identical. Equal values may be shown once.

Broadly, the Kd is the concentration at which binding is half-saturated. Lower therefore signals a tighter complex.

B1: recombinant K140 (NH2-terminally truncated K-FGF, residues 67-206) (ligand)
chain: MAAVQSGAGDYLLGIKRLRRLYCNVGIGFHLQALPDGRIGGAHADTRDSLLELSPVERGVVSIFGVASRFFVAMSSKGKLYGSPFFTDECTFKEILLPNNYNAYESYKYPGMFIALSKNGKTKKGNRVSPTMKVTHFLPRL
modifications: 125I-labeled Bolton-Hunter reagent (where used as the labelled ligand)
As to B1, in experiment [1], the Kd is 60 pM; the fold affinity over K-FGF (competition) is 2 fold; the fold affinity over bFGF and K-FGF (competition against 125I-bFGF) is 2 fold and 3 fold. In addition, the Kd in experiment [2] was 90 pM.

B2: recombinant wild-type K-FGF (human K-FGF/HST, FGF-4) (ligand)
chain: APTAPNGTLEAELERRWESLVALSLARLPVAAQPKEAAVQSGAGDYLLGIKRLRRLYCNVGIGFHLQALPDGRIGGAHADTRDSLLELSPVERGVVSIFGVASRFFVAMSSKGKLYGSPFFTDECTFKEILLPNNYNAYESYKYPGMFIALSKNGKTKKGNRVSPTMKVTHFLPRL
modifications: 125I-labeled Bolton-Hunter reagent (where used as the labelled ligand)
In the case of B2, the Kd in experiment [1] turned out to be 140 pM. Also, in experiment [2], the Kd amounted to 280 pM and the fold more unlabeled competitor required than of K140 came out at 5 fold.

Values taken from PMC2119555.
